According to paper PMC12047441:

Biological target: T1, His-tagged A. vinelandii NifEN heterologously expressed in E. coli, O- and L-cluster containing (AvNifEN^Ec-L) (A. vinelandii) (UniProt P08293)
T1 sequence 1: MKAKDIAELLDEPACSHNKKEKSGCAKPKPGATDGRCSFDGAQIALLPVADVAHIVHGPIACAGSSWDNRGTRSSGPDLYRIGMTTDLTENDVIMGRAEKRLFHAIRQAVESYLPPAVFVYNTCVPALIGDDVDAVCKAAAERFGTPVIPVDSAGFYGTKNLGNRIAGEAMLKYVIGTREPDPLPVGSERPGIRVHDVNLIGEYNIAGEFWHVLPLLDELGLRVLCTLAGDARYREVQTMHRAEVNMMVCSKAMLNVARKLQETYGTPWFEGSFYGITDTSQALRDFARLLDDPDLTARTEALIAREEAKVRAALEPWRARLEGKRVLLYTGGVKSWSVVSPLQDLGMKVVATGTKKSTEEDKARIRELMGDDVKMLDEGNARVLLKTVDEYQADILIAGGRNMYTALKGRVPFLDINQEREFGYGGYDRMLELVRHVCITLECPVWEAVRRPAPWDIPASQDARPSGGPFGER
T1 sequence 2: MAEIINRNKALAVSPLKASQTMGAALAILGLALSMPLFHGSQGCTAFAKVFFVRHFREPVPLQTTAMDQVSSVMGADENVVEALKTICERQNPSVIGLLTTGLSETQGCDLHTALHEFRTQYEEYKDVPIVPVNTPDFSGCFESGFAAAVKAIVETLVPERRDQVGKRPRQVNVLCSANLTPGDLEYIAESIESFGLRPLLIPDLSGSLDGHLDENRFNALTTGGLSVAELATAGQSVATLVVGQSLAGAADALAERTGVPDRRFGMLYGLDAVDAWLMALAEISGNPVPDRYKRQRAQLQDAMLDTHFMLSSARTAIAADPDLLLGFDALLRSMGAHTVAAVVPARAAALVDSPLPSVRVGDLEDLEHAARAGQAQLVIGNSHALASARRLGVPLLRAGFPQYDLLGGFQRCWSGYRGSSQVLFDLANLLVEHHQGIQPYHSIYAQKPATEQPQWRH

- L-cluster occupancy of AvNifEN^Ec-L calculated from the Fe content, after in vivo transfer of the L-cluster from NifB to NifEN in E. coli: 42.9%
- L-cluster occupancy of AvNifEN^Ec-L relative to native AvNifEN^L (intensity of the g = 1.94 EPR feature), after in vivo transfer of the L-cluster from NifB to NifEN in E. coli: 36%
B1: M. acetivorans NifB (MaNifB), radical SAM enzyme, L-cluster bound (enzyme)
chain: MPEENQPIKEKNNGPILGEELLRKISEHPCYDKNAQHKYGRIHLAVAPACNIQCNFCVREFDCVNESRPGVTSKVLTPEEALEKTKQILAEYPFIKVVAIAGPGDPLANDETFETFELIRNEFPEITLCMSTNGLMLPEKLPEILRTGVSTLTVTVNAIDPEIQAKIVDHIFYHGKVYKGVEAAKIQIKNQLDGIKAAIDAGIVVKVNTVLIPGINDKHIIEIAKKLNELGVYIMNVMPLINQGAFADLEPPTPEERKAVQEACEPYVMQMRHCRQCRADAYGLLAQDMSQMSEERRKVIKIQTKEDMEKARAVLEKNGKKEA
